In article PMC1301591 (Nucleic Acids Research, 2005):

Experiments:
[1] = biological target: Recombinant His-tagged BLM protein (human, UniProt P54132 1-1417); experiment: pull-down
[2] = biological target: T1, Recombinant His-tagged WRN protein (human, UniProt Q14191 1-1432); experiment: pull-down
[3] = biological target: T1, Recombinant His-tagged WRN protein; experiment: ELISA

Chain of Recombinant His-tagged BLM protein (P54132 whole entry): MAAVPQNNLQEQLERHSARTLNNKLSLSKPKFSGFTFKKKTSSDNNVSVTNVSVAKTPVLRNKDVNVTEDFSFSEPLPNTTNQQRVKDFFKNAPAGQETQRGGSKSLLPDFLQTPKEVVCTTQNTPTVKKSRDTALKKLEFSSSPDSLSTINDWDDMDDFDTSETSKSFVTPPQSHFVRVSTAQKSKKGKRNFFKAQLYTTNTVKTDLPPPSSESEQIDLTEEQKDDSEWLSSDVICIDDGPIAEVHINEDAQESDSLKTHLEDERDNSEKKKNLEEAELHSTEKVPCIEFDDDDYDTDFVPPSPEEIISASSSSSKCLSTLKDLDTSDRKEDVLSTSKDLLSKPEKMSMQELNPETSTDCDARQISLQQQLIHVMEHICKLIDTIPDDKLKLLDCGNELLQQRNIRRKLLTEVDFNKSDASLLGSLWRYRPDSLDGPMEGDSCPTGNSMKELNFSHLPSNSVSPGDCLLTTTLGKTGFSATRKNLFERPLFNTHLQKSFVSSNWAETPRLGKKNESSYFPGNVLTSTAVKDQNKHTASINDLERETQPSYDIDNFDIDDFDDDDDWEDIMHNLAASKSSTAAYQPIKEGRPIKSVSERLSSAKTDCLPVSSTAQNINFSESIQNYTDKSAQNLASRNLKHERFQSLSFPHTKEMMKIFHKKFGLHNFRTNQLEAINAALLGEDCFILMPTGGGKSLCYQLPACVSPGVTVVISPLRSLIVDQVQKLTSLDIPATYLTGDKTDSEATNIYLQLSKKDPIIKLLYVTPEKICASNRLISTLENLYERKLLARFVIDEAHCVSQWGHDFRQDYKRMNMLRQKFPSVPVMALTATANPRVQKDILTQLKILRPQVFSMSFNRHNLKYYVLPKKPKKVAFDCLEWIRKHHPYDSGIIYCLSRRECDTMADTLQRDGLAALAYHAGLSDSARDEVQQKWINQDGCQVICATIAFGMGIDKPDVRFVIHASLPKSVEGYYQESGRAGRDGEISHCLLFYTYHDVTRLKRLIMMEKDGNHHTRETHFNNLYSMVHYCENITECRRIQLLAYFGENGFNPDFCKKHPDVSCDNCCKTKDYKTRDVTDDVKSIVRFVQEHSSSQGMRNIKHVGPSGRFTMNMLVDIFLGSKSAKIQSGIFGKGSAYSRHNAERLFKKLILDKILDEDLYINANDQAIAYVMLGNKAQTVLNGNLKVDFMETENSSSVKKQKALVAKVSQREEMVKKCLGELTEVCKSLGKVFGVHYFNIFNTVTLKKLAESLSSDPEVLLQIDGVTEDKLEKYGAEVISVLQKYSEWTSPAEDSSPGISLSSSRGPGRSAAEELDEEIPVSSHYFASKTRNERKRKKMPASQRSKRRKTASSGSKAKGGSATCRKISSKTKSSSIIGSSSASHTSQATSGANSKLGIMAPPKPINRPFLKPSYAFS
T1 sequence (Q14191 whole entry): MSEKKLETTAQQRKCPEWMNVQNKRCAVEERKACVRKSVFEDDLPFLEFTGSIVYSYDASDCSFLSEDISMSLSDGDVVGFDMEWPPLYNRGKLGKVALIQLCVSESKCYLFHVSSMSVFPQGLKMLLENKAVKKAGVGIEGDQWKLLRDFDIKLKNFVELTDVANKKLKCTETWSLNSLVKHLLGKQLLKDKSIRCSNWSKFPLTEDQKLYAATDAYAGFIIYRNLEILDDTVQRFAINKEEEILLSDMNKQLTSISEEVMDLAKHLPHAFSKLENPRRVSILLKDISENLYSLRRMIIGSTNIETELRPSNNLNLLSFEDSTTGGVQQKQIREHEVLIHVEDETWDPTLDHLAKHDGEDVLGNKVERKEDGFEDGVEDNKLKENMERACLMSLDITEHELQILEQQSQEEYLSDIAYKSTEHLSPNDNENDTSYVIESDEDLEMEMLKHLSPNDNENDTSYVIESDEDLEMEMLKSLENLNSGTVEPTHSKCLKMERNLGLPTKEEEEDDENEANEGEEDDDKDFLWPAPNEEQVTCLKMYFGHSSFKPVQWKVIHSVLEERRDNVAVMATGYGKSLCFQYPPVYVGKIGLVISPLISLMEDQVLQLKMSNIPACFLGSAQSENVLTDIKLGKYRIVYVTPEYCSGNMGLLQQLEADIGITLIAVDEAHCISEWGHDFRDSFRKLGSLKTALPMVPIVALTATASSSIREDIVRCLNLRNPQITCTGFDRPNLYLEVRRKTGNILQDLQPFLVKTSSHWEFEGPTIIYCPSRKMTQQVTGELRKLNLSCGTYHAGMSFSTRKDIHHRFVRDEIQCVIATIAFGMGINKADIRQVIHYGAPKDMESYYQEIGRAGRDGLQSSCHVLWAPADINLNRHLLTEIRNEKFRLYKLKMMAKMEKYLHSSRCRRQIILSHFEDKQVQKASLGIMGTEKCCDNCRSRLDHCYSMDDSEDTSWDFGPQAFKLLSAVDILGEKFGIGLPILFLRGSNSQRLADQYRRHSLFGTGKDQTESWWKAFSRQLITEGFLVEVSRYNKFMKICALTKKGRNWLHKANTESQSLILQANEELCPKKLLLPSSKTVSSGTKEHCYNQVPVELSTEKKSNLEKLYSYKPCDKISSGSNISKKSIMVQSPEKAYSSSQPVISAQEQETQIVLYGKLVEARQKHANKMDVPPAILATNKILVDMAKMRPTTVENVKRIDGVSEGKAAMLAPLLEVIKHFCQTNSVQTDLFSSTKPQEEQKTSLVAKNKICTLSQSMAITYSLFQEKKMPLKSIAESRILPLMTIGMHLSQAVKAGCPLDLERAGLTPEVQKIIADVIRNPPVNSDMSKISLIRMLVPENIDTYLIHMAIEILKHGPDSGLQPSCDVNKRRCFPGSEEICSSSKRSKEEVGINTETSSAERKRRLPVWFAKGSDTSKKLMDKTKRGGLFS

B1: GST–FEN-1 fusion protein containing human FEN-1 amino acids 254–380 (domain or fragment, UniProt P39748 254-380, looked up)
chain: KSIEEIVRRLDPNKYPVPENWLHKEAHQLFLEPEVLDPESVELKWSEPNEEELIKFMCGEKQFSEERIRSGVKRLSKSRQGSTQGRLDDFFKVTGSLSSAKRKEPEPKGSTKKKAKTGAAGKFKRGK
- binding result [1]: binds
- binding result [2]: binds

B2: FEN-1ΔP (residues 337–344 are deleted) (enzyme, human, UniProt P39748 1-380, looked up)
chain: MGIQGLAKLIADVAPSAIRENDIKSYFGRKVAIDASMSIYQFLIAVRQGGDVLQNEEGETTSHLMGMFYRTIRMMENGIKPVYVFDGKPPQLKSGELAKRSERRAEAEKQLQQAQAAGAEQEVEKFTKRLVKVTKQHNDECKHLLSLMGIPYLDAPSEAEASCAALVKAGKVYAAATEDMDCLTFGSPVLMRHLTASEAKKLPIQEFHLSRILQELGLNQEQFVDLCILLGSDYCESIRGIGPKRAVDLIQKHKSIEEIVRRLDPNKYPVPENWLHKEAHQLFLEPEVLDPESVELKWSEPNEEELIKFMCGEKQFSEERIRSGVKRLSKSRQGSTKVTGSLSSAKRKEPEPKGSTKKKAKTGAAGKFKRGK
- binding result [3]: binds

B3: GST–FEN-1 fusion protein containing human FEN-1 amino acids 363–380 (domain or fragment, UniProt P39748 363-380, looked up)
chain: STKKKAKTGAAGKFKRGK
- binding result [1]: binds
- binding result [2]: binds

B4: GST–FEN-1 fusion protein containing human FEN-1 amino acids 328–380 (domain or fragment, UniProt P39748 328-380, looked up)
chain: LSKSRQGSTQGRLDDFFKVTGSLSSAKRKEPEPKGSTKKKAKTGAAGKFKRGK
- binding result [1]: binds
- binding result [2]: binds
